Legend:
HUαβ [1] = target: T1, HUαβ (Escherichia coli, UniProt P0ACF0;P0ACF4 1-90;1-90); assay: ITC
HUαβ [2] = target: T1, HUαβ; assay: ITC; remark: listed apart in the source

T1 sequence (P0ACF0 whole entry, chain 1 of 2): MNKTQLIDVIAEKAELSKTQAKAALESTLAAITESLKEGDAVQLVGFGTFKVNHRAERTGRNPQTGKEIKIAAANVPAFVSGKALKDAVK
T1 sequence (P0ACF4 whole entry, chain 2 of 2): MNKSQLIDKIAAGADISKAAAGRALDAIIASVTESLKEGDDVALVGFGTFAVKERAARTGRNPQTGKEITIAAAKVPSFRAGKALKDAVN

Binder	binding result (HUαβ [1])	binding signal (HUαβ [2])
38 bp DNA (dsDNA) DNA 1: CGGTCAGTTCAAGCCCTTCTAAGTTTGTAGACACCAGC DNA 2: GCTGGTGTCTACAAACTTAGAAGGGCTTGAACTGACCG	binds	–
15 bp DNA (dsDNA) DNA 1: CGGTCAGTTCAAGGC DNA 2: GCCTTGAACTGACCG	–	2.8 ± 1 k10/k6 ratio
